Our source for the Kd and koff values is paper PMC2714985 (Journal of immunology (Baltimore, Md. : 1950), 2009).

The test has as its target rat collagen type I (rat, UniProt P02454 152-1207; P02466 86-1125). Put plainly: SPR. In general terms: SPR reads the build-up and loss of mass on a sensor chip optically.

Chain of rat collagen type I (P02454 152-1207, chain 1 of 2): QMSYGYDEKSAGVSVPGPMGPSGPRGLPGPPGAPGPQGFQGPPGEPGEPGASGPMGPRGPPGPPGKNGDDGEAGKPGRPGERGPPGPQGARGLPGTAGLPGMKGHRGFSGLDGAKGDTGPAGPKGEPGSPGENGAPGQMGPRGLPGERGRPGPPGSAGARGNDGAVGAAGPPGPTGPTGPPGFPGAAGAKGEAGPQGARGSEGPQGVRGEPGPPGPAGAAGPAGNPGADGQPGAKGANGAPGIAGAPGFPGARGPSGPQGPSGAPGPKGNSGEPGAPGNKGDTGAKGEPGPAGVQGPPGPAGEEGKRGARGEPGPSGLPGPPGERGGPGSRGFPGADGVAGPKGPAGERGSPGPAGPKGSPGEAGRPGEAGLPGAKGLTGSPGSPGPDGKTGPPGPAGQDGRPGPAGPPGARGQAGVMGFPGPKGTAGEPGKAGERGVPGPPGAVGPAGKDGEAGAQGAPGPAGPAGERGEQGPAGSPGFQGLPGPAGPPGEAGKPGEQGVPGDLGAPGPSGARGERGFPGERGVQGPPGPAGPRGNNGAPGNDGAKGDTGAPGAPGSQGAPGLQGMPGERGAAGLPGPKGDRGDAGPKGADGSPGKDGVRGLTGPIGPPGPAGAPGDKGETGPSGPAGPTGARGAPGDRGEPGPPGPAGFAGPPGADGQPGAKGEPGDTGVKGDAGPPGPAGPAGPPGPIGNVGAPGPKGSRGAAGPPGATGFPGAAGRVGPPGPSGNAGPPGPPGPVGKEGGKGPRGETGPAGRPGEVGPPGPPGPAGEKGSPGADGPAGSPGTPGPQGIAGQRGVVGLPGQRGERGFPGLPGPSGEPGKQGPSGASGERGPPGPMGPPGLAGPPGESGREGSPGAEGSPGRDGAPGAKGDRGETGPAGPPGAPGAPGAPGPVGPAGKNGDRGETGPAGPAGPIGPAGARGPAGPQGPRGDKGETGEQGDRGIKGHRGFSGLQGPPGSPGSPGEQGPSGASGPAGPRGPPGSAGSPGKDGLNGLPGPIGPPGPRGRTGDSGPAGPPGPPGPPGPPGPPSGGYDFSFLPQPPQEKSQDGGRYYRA
Chain of rat collagen type I (P02466 86-1125, chain 2 of 2): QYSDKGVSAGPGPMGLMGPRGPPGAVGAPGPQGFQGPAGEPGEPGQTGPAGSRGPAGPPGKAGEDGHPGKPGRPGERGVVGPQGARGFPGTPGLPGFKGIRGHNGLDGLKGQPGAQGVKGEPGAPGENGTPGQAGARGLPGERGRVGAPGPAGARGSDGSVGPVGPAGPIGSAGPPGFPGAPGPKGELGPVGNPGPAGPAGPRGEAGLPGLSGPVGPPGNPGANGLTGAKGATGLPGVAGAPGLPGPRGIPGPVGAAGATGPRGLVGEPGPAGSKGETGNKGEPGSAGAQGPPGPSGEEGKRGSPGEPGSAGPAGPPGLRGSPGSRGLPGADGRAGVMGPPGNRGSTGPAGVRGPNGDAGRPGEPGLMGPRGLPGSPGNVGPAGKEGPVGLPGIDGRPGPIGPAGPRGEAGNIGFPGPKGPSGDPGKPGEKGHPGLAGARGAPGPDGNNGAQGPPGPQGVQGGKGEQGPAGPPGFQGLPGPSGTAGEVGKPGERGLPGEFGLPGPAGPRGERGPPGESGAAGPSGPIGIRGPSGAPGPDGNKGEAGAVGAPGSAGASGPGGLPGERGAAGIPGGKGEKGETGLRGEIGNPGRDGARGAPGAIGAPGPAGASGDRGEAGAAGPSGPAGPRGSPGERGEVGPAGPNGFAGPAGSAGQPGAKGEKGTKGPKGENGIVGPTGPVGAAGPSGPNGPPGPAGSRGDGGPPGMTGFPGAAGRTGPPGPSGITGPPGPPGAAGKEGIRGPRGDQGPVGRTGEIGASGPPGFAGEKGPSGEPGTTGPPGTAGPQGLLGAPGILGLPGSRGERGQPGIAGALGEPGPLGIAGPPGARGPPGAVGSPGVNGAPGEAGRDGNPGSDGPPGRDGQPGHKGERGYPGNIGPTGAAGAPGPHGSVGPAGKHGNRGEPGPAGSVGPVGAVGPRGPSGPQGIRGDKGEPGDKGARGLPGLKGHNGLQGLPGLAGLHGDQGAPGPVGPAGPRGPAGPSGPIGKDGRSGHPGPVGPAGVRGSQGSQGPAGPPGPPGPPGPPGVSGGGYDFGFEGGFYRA

B1: LAIR-1/Fc wt fusion protein (Fc fusion, human, UniProt Q6GTX8 22-165, looked up)
chain: QEEDLPRPSISAEPGTVIPLGSHVTFVCRGPVGVQTFRLERDSRSTYNDTEDVSQASPSESEARFRIDSVREGNAGLYRCIYYKPPKWSEQSDYLELLVKESSGGPDSPDTEPGSSAGPTQRPSDNSHNEHAPASQGLKAEHLY
B1 displayed a dissociation constant (Kd) of 145 nM and a koff of 0.0456 s⁻¹.

Usually Kd stands for the free concentration of one partner at which half of the binding sites on the other are occupied at equilibrium, for simple one-to-one binding. For orientation: koff means the first-order rate constant of dissociation.
